Laboratory results reported in PMC2908215 (Human mutation, 2010).

Target: T1, MLH1 p.Tyr750X (human, UniProt P40692 1-749)
T1 sequence (looked up): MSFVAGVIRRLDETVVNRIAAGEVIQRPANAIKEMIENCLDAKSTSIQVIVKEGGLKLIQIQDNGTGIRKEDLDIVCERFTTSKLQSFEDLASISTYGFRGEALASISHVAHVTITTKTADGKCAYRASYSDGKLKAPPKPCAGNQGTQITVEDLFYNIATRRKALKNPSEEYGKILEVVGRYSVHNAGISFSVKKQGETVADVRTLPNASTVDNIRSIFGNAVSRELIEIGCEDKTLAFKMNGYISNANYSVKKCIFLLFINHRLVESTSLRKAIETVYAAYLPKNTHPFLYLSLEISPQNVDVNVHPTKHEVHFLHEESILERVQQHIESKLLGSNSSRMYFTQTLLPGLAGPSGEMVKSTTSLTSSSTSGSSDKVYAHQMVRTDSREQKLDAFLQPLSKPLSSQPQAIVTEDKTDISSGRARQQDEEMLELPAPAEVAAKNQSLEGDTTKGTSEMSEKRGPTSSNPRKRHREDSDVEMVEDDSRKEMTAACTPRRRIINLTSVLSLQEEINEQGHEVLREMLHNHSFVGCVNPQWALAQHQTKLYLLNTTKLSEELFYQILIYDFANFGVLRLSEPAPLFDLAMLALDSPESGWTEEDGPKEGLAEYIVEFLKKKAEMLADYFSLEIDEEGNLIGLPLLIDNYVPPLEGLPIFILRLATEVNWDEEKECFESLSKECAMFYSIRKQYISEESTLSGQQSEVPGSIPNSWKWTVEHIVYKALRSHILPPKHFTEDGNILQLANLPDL
Experiment: co-IP

- co-precipitated PMS2 in relation to wild-type: 23 % of wild-type
B1: PMS2 (natural protein, UniProt P54278 1-862, looked up)
chain: MERAESSSTEPAKAIKPIDRKSVHQICSGQVVLSLSTAVKELVENSLDAGATNIDLKLKDYGVDLIEVSDNGCGVEEENFEGLTLKHHTSKIQEFADLTQVETFGFRGEALSSLCALSDVTISTCHASAKVGTRLMFDHNGKIIQKTPYPRPRGTTVSVQQLFSTLPVRHKEFQRNIKKEYAKMVQVLHAYCIISAGIRVSCTNQLGQGKRQPVVCTGGSPSIKENIGSVFGQKQLQSLIPFVQLPPSDSVCEEYGLSCSDALHNLFYISGFISQCTHGVGRSSTDRQFFFINRRPCDPAKVCRLVNEVYHMYNRHQYPFVVLNISVDSECVDINVTPDKRQILLQEEKLLLAVLKTSLIGMFDSDVNKLNVSQQPLLDVEGNLIKMHAADLEKPMVEKQDQSPSLRTGEEKKDVSISRLREAFSLRHTTENKPHSPKTPEPRRSPLGQKRGMLSSSTSGAISDKGVLRPQKEAVSSSHGPSDPTDRAEVEKDSGHGSTSVDSEGFSIPDTGSHCSSEYAASSPGDRGSQEHVDSQEKAPKTDDSFSDVDCHSNQEDTGCKFRVLPQPTNLATPNTKRFKKEEILSSSDICQKLVNTQDMSASQVDVAVKINKKVVPLDFSMSSLAKRIKQLHHEAQQSEGEQNYRKFRAKICPGENQAAEDELRKEISKTMFAEMEIIGQFNLGFIITKLNEDIFIVDQHATDEKYNFEMLQQHTVLQGQRLIAPQTLNLTAVNEAVLIENLEIFRKNGFDFVIDENAPVTERAKLISLPTSKNWTFGPQDVDELIFMLSDSPGVMCRPSRVKQMFASRACRKSVMIGTALNTSEMKKLITHMGEMDHPWNCPHGRPTMRHIANLGVISQN
